One block for each binder: values may come before it.
Experiments:
[1] = target: T1, recombinant human GPC2 (R&D Systems) (human, UniProt Q8N158 24-554, limits assumed, labelled with Dylight488 or Dylight650 in the flow cytometry assays; unlabelled in the ELISA); test: flow cytometry, CAR T cells stained with fluorescently labelled recombinant GPC2
T1 construct: extracellular domain; also called hGPC2; human Glypican-2
T1 sequence (looked up): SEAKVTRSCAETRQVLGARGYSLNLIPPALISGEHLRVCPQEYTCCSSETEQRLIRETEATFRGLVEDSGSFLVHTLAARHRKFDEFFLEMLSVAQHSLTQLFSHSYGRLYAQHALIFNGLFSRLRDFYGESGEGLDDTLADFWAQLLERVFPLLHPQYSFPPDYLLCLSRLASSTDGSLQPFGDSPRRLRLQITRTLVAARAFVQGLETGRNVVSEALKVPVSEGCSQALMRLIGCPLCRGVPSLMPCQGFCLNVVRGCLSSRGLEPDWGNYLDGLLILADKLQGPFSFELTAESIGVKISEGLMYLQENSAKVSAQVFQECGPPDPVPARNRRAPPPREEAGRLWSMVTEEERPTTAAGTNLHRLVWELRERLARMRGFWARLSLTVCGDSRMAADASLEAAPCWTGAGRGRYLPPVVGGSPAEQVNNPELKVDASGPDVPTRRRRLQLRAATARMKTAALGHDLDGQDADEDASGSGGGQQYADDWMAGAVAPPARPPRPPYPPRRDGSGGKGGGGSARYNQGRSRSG
Text: Primary human T cells were isolated from healthy donors using the RosetteSep Human T cell Enrichment kit (Stem Cell Technologies) using buffy coats were derived from the Stanford Blood Center and processed according to the manufacturer's protocol using Lymphoprep density gradient medium and SepMate-50 tubes. Isolated T cells were cryopreserved in CryoStor CS10 cryopreservation medium (Stem Cell Technologies). Cryopreserved T cells were thawed and activated with Human T-Expander CD3/CD28 Dynabeads (Gibco) at a 3:1 beads: cell ratio in AIM-V media supplemented with 5% FBS, 10 mM HEPES, 2 mM 1-glutamine, 100 U/mL penicillin, and 100 μg/mL streptomycin (Gibco) and with 100 IU/ml of recombinant IL-2 (Preprotech). T cells were transduced with retroviral vector on days 2 and 3 post activation and anti-CD3/CD28 beads were removed on day 5. CAR T-cells were maintained at 0.3-1×10⁶ cells per mL in T cell medium with IL2. CAR expression was assessed by Flow Cytometry after incubation with soluble, recombinant, human GPC2 (R&D systems) labelled with Dylight488 or Dylight650. CAR T cells were used for in vitro assays or transferred into mice on day 10 post activation.
Data was collected with an LSR Fortessa X-20 (BD Bioscience) and analyzed using the FlowJo software. Cells were harvested, washed twice with FACS buffer (PBS supplemented with 2% FBS and 0.4% 0.5 M EDTA) and stained for 30 min in the dark on ice. Cells were washed 3 times with FACS buffer after each incubation step. Cells were gated on viable cells and singlet discrimination (FSC-A/FSC-H) was performed before assessment of antigen expression. Semiquantitative assessment of GPC2 antigen density in molecules per cell was estimated using the BD Quantibrite Kit per the manufacturer's protocol.

[2] = target: T1, recombinant human GPC2 (R&D Systems); test: ELISA, antigen coated on plate, anti-human Fc-HRP detection
Description: (§1) Fully human GPC2.19-IgG1 antibody was transiently expressed in 293 FreeStyle cells. Antibody was isolated from culture supernatant using protein A beads (Fisher). Isolated antibody was washed using PBS and Amicon […] filter columns. Binding of GPC2.19-IgG1 to GPC2 antigen was measured via ELISA. Recombinant human and mouse GPC2 antigens were purchased from R&D Systems, dry milk was from BioRad. All other chemicals were biological grade. High absorbance 96-well ELISA plates were coated with antigen overnight using […] stock solution per well at 2 μg/ml. Experiments were performed at 4° C. Antigen coated plates were blocked using 3% milk in PBS and 0.5% TWEEN® 20 for 2 h. Blocked plates were incubated with one of the tested primary antibodies for 1 hour, washed 5 times (BioTek plate washer) and incubated with anti-human Fc-HRP (Sigma) as the secondary antibody for 1 hour. Secondary antibody was washed five times, the HRP substrate TMB (Sigma) was added and plate was incubated for 3 minutes. TMB oxidation was stopped with 2.5 M sulfuric acid. Plates' absorbance was measured on plate reader (BioRad) at 415 nm.

[3] = target: T2, recombinant murine GPC2 (R&D Systems) (mouse, UniProt Q8BKV1 22-556, limits assumed, labelled with Dylight488 in the flow cytometry assay of FIG. 9B; unlabelled in the ELISA); test: as above
T2 construct: Bought recombinant protein; also called mGPC2; mouse GPC2
T2 sequence (looked up): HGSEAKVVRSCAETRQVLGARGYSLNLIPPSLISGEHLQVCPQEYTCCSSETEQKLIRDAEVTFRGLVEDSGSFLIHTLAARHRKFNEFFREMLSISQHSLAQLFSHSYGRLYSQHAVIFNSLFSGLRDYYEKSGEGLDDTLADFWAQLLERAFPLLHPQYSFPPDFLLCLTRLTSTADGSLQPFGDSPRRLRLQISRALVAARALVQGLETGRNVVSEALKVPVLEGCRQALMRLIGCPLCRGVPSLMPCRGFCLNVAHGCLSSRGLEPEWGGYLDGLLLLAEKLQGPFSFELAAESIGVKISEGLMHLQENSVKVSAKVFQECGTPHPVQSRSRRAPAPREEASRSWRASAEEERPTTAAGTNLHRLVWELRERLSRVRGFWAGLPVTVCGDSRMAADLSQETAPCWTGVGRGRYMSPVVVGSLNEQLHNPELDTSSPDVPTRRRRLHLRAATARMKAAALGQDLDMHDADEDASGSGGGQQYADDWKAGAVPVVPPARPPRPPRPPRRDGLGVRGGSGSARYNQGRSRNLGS
Description: as §1

[4] = target: T2, recombinant murine GPC2 (R&D Systems); test: flow cytometry, CAR T cells stained with Dylight488-labelled murine GPC2

B1: GPC2.27 CAR in VH-L-VL orientation with CD8a hinge-transmembrane domain and 41BBz signaling domain (other)
chain: EVQLVESGPGLVKPSETLSLTCAVSGYSISSGYYWGWIRQPPGKGLEWIGSIYHSGSTYYNPSLKSRVTISVDTSKNQFSLKLSSVTAADTAVYYCASLPSRGGFDYWGQGTLVTVSSGGGGSGGGASGGGGSEIVMTQSPATLSASVGDRVTIACRASQTISRYLNWYQQKPGKAPKLLIYAASSLQSGVSSRFSGSGSGTEFTLTISSLQPEDFATYFCQQTYSPPITFGQGTRLEIKRATTTPAPRPPTPAPTIASQPLSLRPEACRPAAGGAVHTRGLDFACDIYIWAPLAGTCGVLLLSLVITLYCKRGRKKLLYIFKQPFMRPVQTTQEEDGCSCRFPEEEEGGCELRVKFSRSADAPAYKQGQNQLYNELNLGRREEYDVLDKRRGRDPEMGGKPRRKNPQEGLYNELQKDKMAEAYSEIGMKGERRRGKGHDGLYQGLSTATKDTYDALHMQALPPR
notes: also called GPC2.27 VH-L-VL CAR
- binding result [1]: binds

B2: GPC2.19VLVH.28H-28TM.41BBz (other)
chain: DIQMTQSPSSLSASIGDRVTITCQASQDISDYLNWYQQKPGKAPKLLIYDASNLETGVPSRFSGSGSGTDFTFTISSLQPEDVATYYCQQYDNLPITFGQGTKLEIKRGGGGSGGGASGGGGSQLQLQESGPGLVKPSETLSLTCTVSGGSISSSSYYWSWIRQPPGKGLEWIGSIYYSGSTYYNPSLKSRVTISVDTSKNQFSLKLSSVTAADTAVYYCARRVSGHPFDPWGQGTLVTVSSAAAIEVMYPPPYLDNEKSNGTIIHVKGKHLCPSPLFPGPSKPFWVLVVVGGVLACYSLLVTVAFIIFWVKRGRKKLLYIFKQPFMRPVQTTQEEDGCSCRFPEEEEGGCELRVKFSRSADAPAYKQGQNQLYNELNLGRREEYDVLDKRRGRDPEMGGKPRRKNPQEGLYNELQKDKMAEAYSEIGMKGERRRGKGHDGLYQGLSTATKDTYDALHMQALPPR
notes: also called GPC2.19 CAR with CD28 hinge-transmembrane domains and 41BB costimulatory domain
- binding result [1]: binds

B3: GPC2.19VLVH.28H-28TM.28z (other)
chain: DIQMTQSPSSLSASIGDRVTITCQASQDISDYLNWYQQKPGKAPKLLIYDASNLETGVPSRFSGSGSGTDFTFTISSLQPEDVATYYCQQYDNLPITFGQGTKLEIKRGGGGSGGGASGGGGSQLQLQESGPGLVKPSETLSLTCTVSGGSISSSSYYWSWIRQPPGKGLEWIGSIYYSGSTYYNPSLKSRVTISVDTSKNQFSLKLSSVTAADTAVYYCARRVSGHPFDPWGQGTLVTVSSAAAIEVMYPPPYLDNEKSNGTIIHVKGKHLCPSPLFPGPSKPFWVLVVVGGVLACYSLLVTVAFIIFWVRSKRSRLLHSDYMNMTPRRPGPTRKHYQPYAPPRDFAAYRSRVKFSRSADAPAYQQGQNQLYNELNLGRREEYDVLDKRRGRDPEMGGKPRRKNPQEGLYNELQKDKMAEAYSEIGMKGERRRGKGHDGLYQGLSTATKDTYDALHMQALPPR
notes: also called GPC2.28TM.28z CAR; GPC2.19 CAR with CD28 hinge-transmembrane domains and CD28 costimulatory domain
- binding result [1]: binds

B4: GPC2.19-IgG1 (antibody, V domains shown)
VH: QLQLQESGPGLVKPSETLSLTCTVSGGSISSSSYYWSWIRQPPGKGLEWIGSIYYSGSTYYNPSLKSRVTISVDTSKNQFSLKLSSVTAADTAVYYCARRVSGHPFDPWGQGTLVTVSS
VL: DIQMTQSPSSLSASIGDRVTITCQASQDISDYLNWYQQKPGKAPKLLIYDASNLETGVPSRFSGSGSGTDFTFTISSLQPEDVATYYCQQYDNLPITFGQGTKLEIKR
notes: also called GPC2.IgG1; fully human GPC2.19-IgG1 antibody
- EC50 [2]: ~1 nM
- EC50 [3]: ~1 nM

B5: GPC2.19 CAR in VH-L-VL orientation with CD8a hinge-transmembrane domain and 41BBz signaling domain (other)
chain: QLQLQESGPGLVKPSETLSLTCTVSGGSISSSSYYWSWIRQPPGKGLEWIGSIYYSGSTYYNPSLKSRVTISVDTSKNQFSLKLSSVTAADTAVYYCARRVSGHPFDPWGQGTLVTVSSGGGGSGGGASGGGGSDIQMTQSPSSLSASIGDRVTITCQASQDISDYLNWYQQKPGKAPKLLIYDASNLETGVPSRFSGSGSGTDFTFTISSLQPEDVATYYCQQYDNLPITFGQGTKLEIKRATTTPAPRPPTPAPTIASQPLSLRPEACRPAAGGAVHTRGLDFACDIYIWAPLAGTCGVLLLSLVITLYCKRGRKKLLYIFKQPFMRPVQTTQEEDGCSCRFPEEEEGGCELRVKFSRSADAPAYKQGQNQLYNELNLGRREEYDVLDKRRGRDPEMGGKPRRKNPQEGLYNELQKDKMAEAYSEIGMKGERRRGKGHDGLYQGLSTATKDTYDALHMQALPPR
notes: also called GPC2.19 VH-L-VL CAR
- binding result [1]: binds

The remaining lines, values ahead:

- binding result [1]: binds
- binding result [4]: binds
B6: GPC2.19VLVH.8aH-8aTM.41BBz (other)
chain: DIQMTQSPSSLSASIGDRVTITCQASQDISDYLNWYQQKPGKAPKLLIYDASNLETGVPSRFSGSGSGTDFTFTISSLQPEDVATYYCQQYDNLPITFGQGTKLEIKRGGGGSGGGASGGGGSQLQLQESGPGLVKPSETLSLTCTVSGGSISSSSYYWSWIRQPPGKGLEWIGSIYYSGSTYYNPSLKSRVTISVDTSKNQFSLKLSSVTAADTAVYYCARRVSGHPFDPWGQGTLVTVSSATTTPAPRPPTPAPTIASQPLSLRPEACRPAAGGAVHTRGLDFACDIYIWAPLAGTCGVLLLSLVITLYCKRGRKKLLYIFKQPFMRPVQTTQEEDGCSCRFPEEEEGGCELRVKFSRSADAPAYKQGQNQLYNELNLGRREEYDVLDKRRGRDPEMGGKPRRKNPQEGLYNELQKDKMAEAYSEIGMKGERRRGKGHDGLYQGLSTATKDTYDALHMQALPPR
notes: also called GPC2.19 CAR; GPC2.8aTM.41BBz CAR

- binding result [1]: binds
B7: GPC2.27 CAR in VL-L-VH orientation with CD8a hinge-transmembrane domain and 41BBz signaling domain (other)
chain: EIVMTQSPATLSASVGDRVTIACRASQTISRYLNWYQQKPGKAPKLLIYAASSLQSGVSSRFSGSGSGTEFTLTISSLQPEDFATYFCQQTYSPPITFGQGTRLEIKRGGGGSGGGASGGGGSEVQLVESGPGLVKPSETLSLTCAVSGYSISSGYYWGWIRQPPGKGLEWIGSIYHSGSTYYNPSLKSRVTISVDTSKNQFSLKLSSVTAADTAVYYCASLPSRGGFDYWGQGTLVTVSSATTTPAPRPPTPAPTIASQPLSLRPEACRPAAGGAVHTRGLDFACDIYIWAPLAGTCGVLLLSLVITLYCKRGRKKLLYIFKQPFMRPVQTTQEEDGCSCRFPEEEEGGCELRVKFSRSADAPAYKQGQNQLYNELNLGRREEYDVLDKRRGRDPEMGGKPRRKNPQEGLYNELQKDKMAEAYSEIGMKGERRRGKGHDGLYQGLSTATKDTYDALHMQALPPR
notes: also called GPC2.27 VL-L-VH CAR

— patent US20260209384A1 (Stanford University, published 2026)
